One assay addresses HT1080. Briefly: flow cytometry; HT1080 cells.
A further assay has as its target TRAIL-R2-Fc (human, UniProt O14763 56-210). Briefly: ELISA. A general note: An ELISA detects its analyte on a solid surface through an enzyme-linked reagent.

This is an account of results in US20180094059A1 (published 2018).

B1: Db8-Glyco-scTRAIL3-FAVSGAA (other)
chain: LEASDYKDDDDKGAEVQLVESGGGLVQPGGSLRLSCAASGFSLTNYGVHWVRQAPGKGLEWLGVIWSGGNTDYNTPFTSRFTISRDNSKNTLYLQMNSLRAEDTAVYYCARALTYYDYEFAYWGQGTTVTVSSGGGGSGGGDIQLTQSPSFLSASVGDRVTITCRASQSIGTNIHWYQQKPGKAPKLLIKYASESISGVPSRFSGSGSGTEFTLTISSLQPEDFATYYCQQNNNWPTTFGAGTKLEIKRAAAGNGTSNGTSEFGGAAAHITGTRGRSNTLSSPNSKNEKALGRKINSWESSRSGHSFLSNLHLRNGELVIHEKGFYYIYSQTYFRFQEEIKENTKNDKQMVQYIYKYTSYPDPILLMKSARNSCWSKDAEYGLYSIYQGGIFELKENDRIFVSVTNEHLIDMDHEASFFGAFAVSGAAAHITGTRGRSNTLSSPNSKNEKALGRKINSWESSRSGHSFLSNLHLRNGELVIHEKGFYYIYSQTYFRFQEEIKENTKNDKQMVQYIYKYTSYPDPILLMKSARNSCWSKDAEYGLYSIYQGGIFELKENDRIFVSVTNEHLIDMDHEASFFGAFAVSGAAAHITGTRGRSNTLSSPNSKNEKALGRKINSWESSRSGHSFLSNLHLRNGELVIHEKGFYYIYSQTYFRFQEEIKENTKNDKQMVQYIYKYTSYPDPILLMKSARNSCWSKDAEYGLYSIYQGGIFELKENDRIFVSVTNEHLIDMDHEASFFGAFAVS
modifications: glycosylated connecting peptide
For B1, the 50% effective concentration (EC50) – broadly, the midpoint of the concentration-response curve – with HT1080 was 1.9 nM.

B2: Db-Glyco-scTRAIL-95L8 (other)
chain: TSEETISTVQEKQQNISPLVRERGPQRVAAHITGTRGRSNTLSSPNSKNEKALGRKINSWESSRSGHSFLSNLHLRNGELVIHEKGFYYIYSQTYFRFQEEIKENTKNDKQMVQYIYKYTSYPDPILLMKSARNSCWSKDAEYGLYSIYQGGIFELKENDRIFVSVTNEHLIDMDHEASFFGAFLVGGGGSGGGSTSEETISTVQEKQQNISPLVRERGPQRVAAHITGTRGRSNTLSSPNSKNEKALGRKINSWESSRSGHSFLSNLHLRNGELVIHEKGFYYIYSQTYFRFQEEIKENTKNDKQMVQYIYKYTSYPDPILLMKSARNSCWSKDAEYGLYSIYQGGIFELKENDRIFVSVTNEHLIDMDHEASFFGAFLVGGGGSGGGSTSEETISTVQEKQQNISPLVRERGPQRVAAHITGTRGRSNTLSSPNSKNEKALGRKINSWESSRSGHSFLSNLHLRNGELVIHEKGFYYIYSQTYFRFQEEIKENTKNDKQMVQYIYKYTSYPDPILLMKSARNSCWSKDAEYGLYSIYQGGIFELKENDRIFVSVTNEHLIDMDHEASFFGAFLVG
As for B2, the EC50 in the assay with HT1080 was found to be 0.6 nM.

B3: scTRAIL3-FAVGGIA (protein)
chain: MDWTWRVFCLLAVAPGAHSLDDYKDDDDKEFGGAAAHITGTRGRSNTLSSPNSKNEKALGRKINSWESSRSGHSFLSNLHLRNGELVIHEKGFYYIYSQTYFRFQEEIKENTKNDKQMVQYIYKYTSYPDPILLMKSARNSCWSKDAEYGLYSIYQGGIFELKENDRIFVSVTNEHLIDMDHEASFFGAFLVGGAAAHITGTRGRSNTLSSPNSKNEKALGRKINSWESSRSGHSFLSNLHLRNGELVIHEKGFYYIYSQTYFRFQEEIKENTKNDKQMVQYIYKYTSYPDPILLMKSARNSCWSKDAEYGLYSIYQGGIFELKENDRIFVSVTNEHLIDMDHEASFFGAFLVGGAAAHITGTRGRSNTLSSPNSKNEKALGRKINSWESSRSGHSFLSNLHLRNGELVIHEKGFYYIYSQTYFRFQEEIKENTKNDKQMVQYIYKYTSYPDPILLMKSARNSCWSKDAEYGLYSIYQGGIFELKENDRIFVSVTNEHLIDMDHEASFFGAFLVG
B3: a half-maximal effect with TRAIL-R2-Fc (EC50) was put at 8.82 nM.

B4: scTRAIL3-FLVSGIA (protein)
chain: MDWTWRVFCLLAVAPGAHSLDDYKDDDDKEFGGIAAHITGTRGRSNTLSSPNSKNEKALGRKINSWESSRSGHSFLSNLHLRNGELVIHEKGFYYIYSQTYFRFQEEIKENTKNDKQMVQYIYKYTSYPDPILLMKSARNSCWSKDAEYGLYSIYQGGIFELKENDRIFVSVTNEHLIDMDHEASFFGAFAVGGIAAHITGTRGRSNTLSSPNSKNEKALGRKINSWESSRSGHSFLSNLHLRNGELVIHEKGFYYIYSQTYFRFQEEIKENTKNDKQMVQYIYKYTSYPDPILLMKSARNSCWSKDAEYGLYSIYQGGIFELKENDRIFVSVTNEHLIDMDHEASFFGAFAVGGIAAHITGTRGRSNTLSSPNSKNEKALGRKINSWESSRSGHSFLSNLHLRNGELVIHEKGFYYIYSQTYFRFQEEIKENTKNDKQMVQYIYKYTSYPDPILLMKSARNSCWSKDAEYGLYSIYQGGIFELKENDRIFVSVTNEHLIDMDHEASFFGAFAVG
Take B4: the response with TRAIL-R2-Fc was half-maximal at 17.5 nM (EC50).

B5: scTRAIL3-FIVSGIA (protein)
chain: MDWTWRVFCLLAVAPGAHSLDDYKDDDDKEFGGIAAHITGTRGRSNTLSSPNSKNEKALGRKINSWESSRSGHSFLSNLHLRNGELVIHEKGFYYIYSQTYFRFQEEIKENTKNDKQMVQYIYKYTSYPDPILLMKSARNSCWSKDAEYGLYSIYQGGIFELKENDRIFVSVTNEHLIDMDHEASFFGAFIVGGIAAHITGTRGRSNTLSSPNSKNEKALGRKINSWESSRSGHSFLSNLHLRNGELVIHEKGFYYIYSQTYFRFQEEIKENTKNDKQMVQYIYKYTSYPDPILLMKSARNSCWSKDAEYGLYSIYQGGIFELKENDRIFVSVTNEHLIDMDHEASFFGAFIVGGIAAHITGTRGRSNTLSSPNSKNEKALGRKINSWESSRSGHSFLSNLHLRNGELVIHEKGFYYIYSQTYFRFQEEIKENTKNDKQMVQYIYKYTSYPDPILLMKSARNSCWSKDAEYGLYSIYQGGIFELKENDRIFVSVTNEHLIDMDHEASFFGAFIVG
On to B5, for which the response in the assay with TRAIL-R2-Fc was half-maximal at 6.7 nM (EC50).

B6: scTRAIL3-FIVGGIA (protein)
chain: MDWTWRVFCLLAVAPGAHSLDDYKDDDDKEFGGAAAHITGTRGRSNTLSSPNSKNEKALGRKINSWESSRSGHSFLSNLHLRNGELVIHEKGFYYIYSQTYFRFQEEIKENTKNDKQMVQYIYKYTSYPDPILLMKSARNSCWSKDAEYGLYSIYQGGIFELKENDRIFVSVTNEHLIDMDHEASFFGAFAVGGAAAHITGTRGRSNTLSSPNSKNEKALGRKINSWESSRSGHSFLSNLHLRNGELVIHEKGFYYIYSQTYFRFQEEIKENTKNDKQMVQYIYKYTSYPDPILLMKSARNSCWSKDAEYGLYSIYQGGIFELKENDRIFVSVTNEHLIDMDHEASFFGAFAVGGAAAHITGTRGRSNTLSSPNSKNEKALGRKINSWESSRSGHSFLSNLHLRNGELVIHEKGFYYIYSQTYFRFQEEIKENTKNDKQMVQYIYKYTSYPDPILLMKSARNSCWSKDAEYGLYSIYQGGIFELKENDRIFVSVTNEHLIDMDHEASFFGAFAVG
In the assay with TRAIL-R2-Fc, B6 returned an EC50 of 4.82 nM.

B7: scTRAIL3-FAVSGAA (protein)
chain: MDWTWRVFCLLAVAPGAHSLDDYKDDDDKEFGGAAAHITGTRGRSNTLSSPNSKNEKALGRKINSWESSRSGHSFLSNLHLRNGELVIHEKGFYYIYSQTYFRFQEEIKENTKNDKQMVQYIYKYTSYPDPILLMKSARNSCWSKDAEYGLYSIYQGGIFELKENDRIFVSVTNEHLIDMDHEASFFGAFAVSGAAAHITGTRGRSNTLSSPNSKNEKALGRKINSWESSRSGHSFLSNLHLRNGELVIHEKGFYYIYSQTYFRFQEEIKENTKNDKQMVQYIYKYTSYPDPILLMKSARNSCWSKDAEYGLYSIYQGGIFELKENDRIFVSVTNEHLIDMDHEASFFGAFAVSGAAAHITGTRGRSNTLSSPNSKNEKALGRKINSWESSRSGHSFLSNLHLRNGELVIHEKGFYYIYSQTYFRFQEEIKENTKNDKQMVQYIYKYTSYPDPILLMKSARNSCWSKDAEYGLYSIYQGGIFELKENDRIFVSVTNEHLIDMDHEASFFGAFAVS
On to B7, for which, in the assay with TRAIL-R2-Fc, the EC50 amounted to 5.69 nM.

B8: Db-Glyco-scTRAIL3-FAVSGAA (other)
chain: LEASDYKDDDDKGAEVQLVESGGGLVQPGGSLRLSCAASGFSLTNYGVHWVRQAPGKGLEWLGVIWSGGNTDYNTPFTSRFTISRDNSKNTLYLQMNSLRAEDTAVYYCARALTYYDYEFAYWGQGTTVTVSSGGGGSDIQLTQSPSFLSASVGDRVTITCRASQSIGTNIHWYQQKPGKAPKLLIKYASESISGVPSRFSGSGSGTEFTLTISSLQPEDFATYYCQQNNNWPTTFGAGTKLEIKRAAAGNGTSNGTSEFGGAAAHITGTRGRSNTLSSPNSKNEKALGRKINSWESSRSGHSFLSNLHLRNGELVIHEKGFYYIYSQTYFRFQEEIKENTKNDKQMVQYIYKYTSYPDPILLMKSARNSCWSKDAEYGLYSIYQGGIFELKENDRIFVSVTNEHLIDMDHEASFFGAFAVSGAAAHITGTRGRSNTLSSPNSKNEKALGRKINSWESSRSGHSFLSNLHLRNGELVIHEKGFYYIYSQTYFRFQEEIKENTKNDKQMVQYIYKYTSYPDPILLMKSARNSCWSKDAEYGLYSIYQGGIFELKENDRIFVSVTNEHLIDMDHEASFFGAFAVSGAAAHITGTRGRSNTLSSPNSKNEKALGRKINSWESSRSGHSFLSNLHLRNGELVIHEKGFYYIYSQTYFRFQEEIKENTKNDKQMVQYIYKYTSYPDPILLMKSARNSCWSKDAEYGLYSIYQGGIFELKENDRIFVSVTNEHLIDMDHEASFFGAFAVS
modifications: two N-glycosylation sites in the peptide AAAGNGTSNGTSEFGG, shown to be glycosylated
For B8, the response in the assay with HT1080 was half-maximal at 2.6 nM (EC50).

B9: Db-Glyco-scTRAIL3-FAVSGIA (other)
chain: LEASDYKDDDDKGAEVQLVESGGGLVQPGGSLRLSCAASGFSLTNYGVHWVRQAPGKGLEWLGVIWSGGNTDYNTPFTSRFTISRDNSKNTLYLQMNSLRAEDTAVYYCARALTYYDYEFAYWGQGTTVTVSSGGGGSDIQLTQSPSFLSASVGDRVTITCRASQSIGTNIHWYQQKPGKAPKLLIKYASESISGVPSRFSGSGSGTEFTLTISSLQPEDFATYYCQQNNNWPTTFGAGTKLEIKRAAAGNGTSNGTSEFGGIAAHITGTRGRSNTLSSPNSKNEKALGRKINSWESSRSGHSFLSNLHLRNGELVIHEKGFYYIYSQTYFRFQEEIKENTKNDKQMVQYIYKYTSYPDPILLMKSARNSCWSKDAEYGLYSIYQGGIFELKENDRIFVSVTNEHLIDMDHEASFFGAFAVSGIAAHITGTRGRSNTLSSPNSKNEKALGRKINSWESSRSGHSFLSNLHLRNGELVIHEKGFYYIYSQTYFRFQEEIKENTKNDKQMVQYIYKYTSYPDPILLMKSARNSCWSKDAEYGLYSIYQGGIFELKENDRIFVSVTNEHLIDMDHEASFFGAFAVSGIAAHITGTRGRSNTLSSPNSKNEKALGRKINSWESSRSGHSFLSNLHLRNGELVIHEKGFYYIYSQTYFRFQEEIKENTKNDKQMVQYIYKYTSYPDPILLMKSARNSCWSKDAEYGLYSIYQGGIFELKENDRIFVSVTNEHLIDMDHEASFFGAFAVS
modifications: glycosylated connecting peptide
B9 showed an EC50 in the assay with HT1080 of 4.3 nM.
